Laboratory results reported in paper PMC9536601, “Binding of adenovirus species C hexon to prothrombin and the influence of hexon on vector properties in vitro and in vivo” (PLoS Pathogens, 2022).

B1: hexon of Ad5.6 (Ad5 vector, hexon HVR7 VIRTDTL), on the virion (natural protein, human adenovirus type 5)
chain: ATPSMMPQWSYMHISGQDASEYLSPGLVQFARATETYFSLNNKFRNPTVAPTHDVTTDRSQRLTLRFIPVDREDTAYSYKARFTLAVGDNRVLDMASTYFDIRGVLDRGPTFKPYSGTAYNALAPKGAPNPCEWDEAATALEINLEEEDDDNEDEVDEQAEQQKTHVFGQAPYSGINITKEGIQIGVEGQTPKYADKTFQPEPQIGESQWYETEINHAAGRVLKKTTPMKPCYGSYAKPTNENGGQGILVKQQNGKLESQVEMQFFSTTEATAGNGDNLTPKVVLYSEDVDIETPDTHISYMPTIKEGNSRELMGQQSMPNRPNYIAFRDNFIGLMYYNSTGNMGVLAGQASQLNAVVDLQDRNTELSYQLLLDSIGDRTRYFSMWNQAVDSYDPDVRIIENHGTEDELPNYCFPLGGVIRTDTLTKVKPKTGQENGWEKDATEFSDKNEIRVGNNFAMEINLNANLWRNFLYSNIALYLPDKLKYSPSNVKISDNPNTYDYMNKRVVAPGLVDCYINLGARWSLDYMDNVNPFNHHRNAGLRYRSMLLGNGRYVPFHIQVPQKFFAIKNLLLLPGSYTYEWNFRKDVNMVLQSSLGNDLRVDGASIKFDSICLYATFFPMAHNTASTLEAMLRNDTNDQSFNDYLSAANMLYPIPANATNVPISIPSRNWAAFRGWAFTRLKTKETPSLGSGYDPYYTYSGSIPYLDGTFYLNHTFKKVAITFDSSVSWPGNDRLLTPNEFEIKRSVDGEGYNVAQCNMTKDWFLVQMLANYNIGYQGFYIPESYKDRMYSFFRNFQPMSRQVVDDTKYKDYQQVGILHQHNNSGFVGYLAPTMREGQAYPANFPYPLIGKTAVDSITQKKFLCDRTLWRIPFSSNFMSMGALTDLGQNLLYANSAHALDMTFEVDPMDEPTLLYVLFEVFDVVRVHRPHRGVIETVYLRTPFSAGNATT
notes: hexon of human adenovirus type 5, whole as in the capsid of the virion; HVR7 segment changed; The whole virion was immobilised; source: 293 cells, virions purified by CsCl ultracentrifugation
B2: hexon of Ad5.4 (Ad5 vector, hexon HVR7 VINTATL), on the virion (natural protein, human adenovirus type 5)
chain: ATPSMMPQWSYMHISGQDASEYLSPGLVQFARATETYFSLNNKFRNPTVAPTHDVTTDRSQRLTLRFIPVDREDTAYSYKARFTLAVGDNRVLDMASTYFDIRGVLDRGPTFKPYSGTAYNALAPKGAPNPCEWDEAATALEINLEEEDDDNEDEVDEQAEQQKTHVFGQAPYSGINITKEGIQIGVEGQTPKYADKTFQPEPQIGESQWYETEINHAAGRVLKKTTPMKPCYGSYAKPTNENGGQGILVKQQNGKLESQVEMQFFSTTEATAGNGDNLTPKVVLYSEDVDIETPDTHISYMPTIKEGNSRELMGQQSMPNRPNYIAFRDNFIGLMYYNSTGNMGVLAGQASQLNAVVDLQDRNTELSYQLLLDSIGDRTRYFSMWNQAVDSYDPDVRIIENHGTEDELPNYCFPLGGVINTATLTKVKPKTGQENGWEKDATEFSDKNEIRVGNNFAMEINLNANLWRNFLYSNIALYLPDKLKYSPSNVKISDNPNTYDYMNKRVVAPGLVDCYINLGARWSLDYMDNVNPFNHHRNAGLRYRSMLLGNGRYVPFHIQVPQKFFAIKNLLLLPGSYTYEWNFRKDVNMVLQSSLGNDLRVDGASIKFDSICLYATFFPMAHNTASTLEAMLRNDTNDQSFNDYLSAANMLYPIPANATNVPISIPSRNWAAFRGWAFTRLKTKETPSLGSGYDPYYTYSGSIPYLDGTFYLNHTFKKVAITFDSSVSWPGNDRLLTPNEFEIKRSVDGEGYNVAQCNMTKDWFLVQMLANYNIGYQGFYIPESYKDRMYSFFRNFQPMSRQVVDDTKYKDYQQVGILHQHNNSGFVGYLAPTMREGQAYPANFPYPLIGKTAVDSITQKKFLCDRTLWRIPFSSNFMSMGALTDLGQNLLYANSAHALDMTFEVDPMDEPTLLYVLFEVFDVVRVHRPHRGVIETVYLRTPFSAGNATT
notes: as for B1
B3: hexon of Ad5.0 (E1/E3-deleted Ad5 vector with wild-type Ad5 capsid), on the virion (natural protein, human adenovirus type 5)
chain: ATPSMMPQWSYMHISGQDASEYLSPGLVQFARATETYFSLNNKFRNPTVAPTHDVTTDRSQRLTLRFIPVDREDTAYSYKARFTLAVGDNRVLDMASTYFDIRGVLDRGPTFKPYSGTAYNALAPKGAPNPCEWDEAATALEINLEEEDDDNEDEVDEQAEQQKTHVFGQAPYSGINITKEGIQIGVEGQTPKYADKTFQPEPQIGESQWYETEINHAAGRVLKKTTPMKPCYGSYAKPTNENGGQGILVKQQNGKLESQVEMQFFSTTEATAGNGDNLTPKVVLYSEDVDIETPDTHISYMPTIKEGNSRELMGQQSMPNRPNYIAFRDNFIGLMYYNSTGNMGVLAGQASQLNAVVDLQDRNTELSYQLLLDSIGDRTRYFSMWNQAVDSYDPDVRIIENHGTEDELPNYCFPLGGVINTETLTKVKPKTGQENGWEKDATEFSDKNEIRVGNNFAMEINLNANLWRNFLYSNIALYLPDKLKYSPSNVKISDNPNTYDYMNKRVVAPGLVDCYINLGARWSLDYMDNVNPFNHHRNAGLRYRSMLLGNGRYVPFHIQVPQKFFAIKNLLLLPGSYTYEWNFRKDVNMVLQSSLGNDLRVDGASIKFDSICLYATFFPMAHNTASTLEAMLRNDTNDQSFNDYLSAANMLYPIPANATNVPISIPSRNWAAFRGWAFTRLKTKETPSLGSGYDPYYTYSGSIPYLDGTFYLNHTFKKVAITFDSSVSWPGNDRLLTPNEFEIKRSVDGEGYNVAQCNMTKDWFLVQMLANYNIGYQGFYIPESYKDRMYSFFRNFQPMSRQVVDDTKYKDYQQVGILHQHNNSGFVGYLAPTMREGQAYPANFPYPLIGKTAVDSITQKKFLCDRTLWRIPFSSNFMSMGALTDLGQNLLYANSAHALDMTFEVDPMDEPTLLYVLFEVFDVVRVHRPHRGVIETVYLRTPFSAGNATT
notes: hexon of human adenovirus type 5, whole as in the capsid of the virion; HVR7 segment VINTETL; The whole virion was immobilised; The other capsid proteins are not written; also called VINTETL; source: 293 cells, virions purified by CsCl ultracentrifugation

Columns and labels:
Assay in all cases: SPR; Biacore T200; about 300 to 5,000 RU of Ad virions immobilised on a CM5 chip, coagulation factors flowed over at four concentrations, 50 uL/min; 10 mM HEPES, 150 mM NaCl, 1 mM CaCl2, 0.5 mM MgCl2, 0.1% BSA, 0.05% polysorbate 20, pH 7.4; global fit to a 1:1 kinetic interaction model, double referencing
Conditions in all cases: both partners purified
[1] = target: T1, human prothrombin (coagulation factor II) (human, UniProt P00734 44-622, γ-carboxylated glutamate residues in the Gla domain (positions not given))
T1 construct: prothrombin (FII), human, plasma-derived; also called Human FII; FII; source: bought: Haematologic Technologies, Inc. (HCP-0010), plasma-derived; dialyzed

[2] = target: T2, hexon of Ad5.5 (Ad5 vector, hexon HVR7 VINTDTL), on the virion (human adenovirus type 5, UniProt P04133 2-952, VINTETL to VINTDTL (HVR7; position worked out from the printed T425A))
T2 construct: hexon of human adenovirus type 5, whole as in the capsid of the virion; HVR7 segment changed; The whole virion was immobilised; source: 293 cells, virions purified by CsCl ultracentrifugation

[3] = target: B1
[4] = target: B3
[5] = target: B2

## B1
[1]
  Kd: 130 nM

## B2
[1]
  Kd: 266 nM

## B3
[1]
  Kd: 35 nM

B4: bovine coagulation factor X (natural protein, UniProt P00743 41-492, looked up)
chain: ANSFLEEVKQGNLERECLEEACSLEEAREVFEDAEQTDEFWSKYKDGDQCEGHPCLNQGHCKDGIGDYTCTCAEGFEGKNCEFSTREICSLDNGGCDQFCREERSEVRCSCAHGYVLGDDSKSCVSTERFPCGKFTQGRSRRWAIHTSEDALDASELEHYDPADLSPTESSLDLLGLNRTEPSAGEDGSQVVRIVGGRDCAEGECPWQALLVNEENEGFCGGTILNEFYVLTAAHCLHQAKRFTVRVGDRNTEQEEGNEMAHEVEMTVKHSRFVKETYDFDIAVLRLKTPIRFRRNVAPACLPEKDWAEATLMTQKTGIVSGFGRTHEKGRLSSTLKMLEVPYVDRSTCKLSSSFTITPNMFCAGYDTQPEDACQGDSGGPHVTRFKDTYFVTGIVSWGEGCARKGKFGVYTKVSNFLKWIDKIMKARAGAAGSRGHSEAPATWTVPPPLPL
modifications: γ-carboxylated glutamate residues in the Gla domain (positions not given)
notes: coagulation factor X, bovine, plasma-derived; also called Bovine FX; source: bought: Haematologic Technologies, Inc. (BCX-1050), plasma-derived; pretreated with GGACK, dialyzed
[2]
  Kd: 438 nM
[3]
  Kd: 1620 nM
[4]
  Kd: 270 nM
[5]
  Kd: 540 nM

B5: mouse coagulation factor X (natural protein, UniProt O88947 41-481, looked up)
chain: ANSFFEEFKKGNLERECMEEICSYEEVREIFEDDEKTKEYWTKYKDGDQCESSPCQNQGACRDGIGGYTCTCSEGFEGKNCELFVRKLCRLDNGDCDQFCREEQNSVVCSCASGYFLGNDGKSCISTAPFPCGKITTGRRKRSVALNTSDSELDLEDALLDEDFLSPTENPIELLNLNETQPERSSDDLVRIVGGRECKDGECPWQALLINEDNEGFCGGTILNEFYILTAAHCLHQARRFKVRVGDRNTEKEEGNEMVHEVDVVIKHNKFQRDTYDYDIAVLRLKTPITFRMNVAPACLPQKDWAESTLMTQKTGIVSGFGRTHEKGRQSNILKMLEVPYVDRNTCKLSTSFSITQNMFCAGYEAKLEDACQGDSGGPHVTRFKNTYYVTGIVSWGEGCARKGKYGIYTKVTTFLKWIDRSMKARVGPTAETPRTAGPPN
modifications: γ-carboxylated glutamate residues in the Gla domain (positions not given)
notes: coagulation factor X, mouse, plasma-derived; also called Mouse FX; source: bought: Haematologic Technologies, Inc. (MCX-5050), plasma-derived; pretreated with GGACK, dialyzed
[2]
  Kd: 2.5 nM
[3]
  Kd: 0.37 nM
[4]
  Kd: 0.32 nM
[5]
  Kd: 1.9 nM

B6: mouse prothrombin (coagulation factor II) (natural protein)
chain: not shown
modifications: γ-carboxylated glutamate residues in the Gla domain (positions not given)
notes: prothrombin (FII), mouse, plasma-derived; also called Mouse FII; source: dialyzed
[2]
  Kd: 216 nM
[3]
  Kd: 420 nM
[4]
  Kd: 2000 nM
[5]
  Kd: 36000 nM
